# Changes are numbered by the printed parent chain.
# T1: human nectin-4 on cells (human, UniProt Q96NY8 32-510)
# T1 construct: also called Nectin-4 receptor
# T1 sequence: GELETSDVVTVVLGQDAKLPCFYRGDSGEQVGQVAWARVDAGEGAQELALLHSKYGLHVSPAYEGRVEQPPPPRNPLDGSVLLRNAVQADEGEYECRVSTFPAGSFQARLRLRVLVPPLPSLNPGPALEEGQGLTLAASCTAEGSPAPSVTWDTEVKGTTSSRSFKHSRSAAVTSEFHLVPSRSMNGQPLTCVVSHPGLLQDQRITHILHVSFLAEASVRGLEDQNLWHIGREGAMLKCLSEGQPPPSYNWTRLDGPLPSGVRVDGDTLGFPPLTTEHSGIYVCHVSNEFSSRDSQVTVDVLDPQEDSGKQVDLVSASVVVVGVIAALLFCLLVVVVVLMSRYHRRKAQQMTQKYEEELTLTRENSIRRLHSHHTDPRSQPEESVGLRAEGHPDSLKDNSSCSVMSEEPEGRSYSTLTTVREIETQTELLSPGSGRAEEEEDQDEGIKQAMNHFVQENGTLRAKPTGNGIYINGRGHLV
# T2: human Nectin-4-eGFP on T24 cells (clone 3) (human, UniProt Q96NY8 32-510)
# T2 sequence: T1 sequence
# T3: recombinant HIS-tagged human nectin-4 (Acro Biosystems Cat. No. NE4-H52H3) (human, UniProt Q96NY8 32-349)
# T3 construct: Bought protein; not shown: HIS tag
# T3 sequence: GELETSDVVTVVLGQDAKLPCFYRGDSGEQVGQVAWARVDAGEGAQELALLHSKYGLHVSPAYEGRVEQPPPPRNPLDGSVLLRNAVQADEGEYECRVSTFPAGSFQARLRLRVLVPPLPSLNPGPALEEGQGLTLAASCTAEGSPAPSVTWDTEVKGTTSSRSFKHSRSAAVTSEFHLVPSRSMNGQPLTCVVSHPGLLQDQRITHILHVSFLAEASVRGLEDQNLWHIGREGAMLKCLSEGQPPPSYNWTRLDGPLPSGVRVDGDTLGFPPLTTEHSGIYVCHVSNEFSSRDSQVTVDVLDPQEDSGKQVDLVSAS
# T4: recombinant HIS-tagged cyno nectin-4 (Acro Biosystems Cat. No. NE4-C52H4) (cyno, UniProt A0A2K5WES1 32-349)
# T4 construct: Bought protein; HIS tag not described
# T4 sequence: T3 sequence with V39A, I230V
# T5: recombinant HIS-tagged rat nectin-4 (R&D Systems Cat. No. 9997-N4-050) (rat, UniProt D3ZET1 31-348)
# T5 construct: Bought protein; HIS tag not described
# T5 sequence: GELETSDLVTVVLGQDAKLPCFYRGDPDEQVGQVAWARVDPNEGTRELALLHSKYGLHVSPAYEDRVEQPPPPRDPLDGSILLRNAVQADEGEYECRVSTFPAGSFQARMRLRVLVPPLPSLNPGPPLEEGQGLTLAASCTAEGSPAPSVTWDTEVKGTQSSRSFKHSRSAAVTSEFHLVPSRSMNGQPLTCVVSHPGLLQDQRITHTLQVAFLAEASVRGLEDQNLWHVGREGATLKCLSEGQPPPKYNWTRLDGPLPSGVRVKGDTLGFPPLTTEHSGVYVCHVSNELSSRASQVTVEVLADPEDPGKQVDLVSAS
# B1: Ab3 (antibody, human IgG1, kappa, L234A L235A, V domains shown)
# VH: EVQLVESGGGLVKPGGSLRLSCAASGFNLNHYNMNWVRQAPGKGLEWVSSVSSGGGFRYYADSVRGRFTISRDNAKNSLYLQMNSLRAEDTAVYYCARGAVFHDAFDIWGQGTLVTVSS
# VL: DIQLTQSPSFLSASVGDRVTITCRASQDISSYLAWYQQKPGKAPKLLIYVASTLQSGVPSRFSGSGSGTEFTLTISSLQPEDFATYYCQQINSYPFTFGQGTKVEIKR
# notes: Unconjugated antibody; also called Antibody 3; nectin-4 antibody Ab3
# B2: Ab4 (antibody, human IgG1, kappa, L234A L235A, V domains shown)
# VH: QVQLQESGPGLVKPSETLSLTCTVSGGSISGYYWSWIRQPPGKGLEWIGYIYYSGSTNYNPSLKSRVTISVDTSKNQFSLKLSSVTAADTAVYYCARLGIFFDAFDIWGQGTLVTVSS
# VL: B1 VL with D28G, V50A, I91F, F96W
# notes: Unconjugated antibody; also called Antibody 4
# B3: Ab5 (antibody, human IgG1, kappa, L234A L235A, V domains shown)
# VH: QVQLVQSGAEVKKPGASVKVSCKASGYTFTSYYVHWVRQAPGQGLEWMGIINPSIISTSYAQKFQARVTMTRDTSTSTVYMELSSLRSEDTAVYYCARGLNFDAFDIWGQGTLVTVSS
# VL: B1 VL with D28G, V50A, I91L, S93N
# notes: Unconjugated antibody; also called Antibody 5; nectin-4 antibody Ab5
# B4: Ab1a (antibody, human IgG1, kappa, L234A L235A, V domains shown)
# VH: QVQLVQSGAQVKKPGASVKVSCKASGYTFTGYYIHWVRQAPGQGLEWMGWINPNSGGTNYAQKFQGRVTMTRDTSISTAYMELSRLRSDDTAVYFCAREDWDFDYWGQGTLVTVSS
# VL: EIVLTQSPGTLSLSPGERATLSCRTSQSVSSSYLAWYQQKPGQAPRLLIYGASNRATDIPDRFSGSGSGTDFTLTINRLEPEDFAVYYCQQYGSSPITFGQGTRLEIKR
# notes: Unconjugated antibody; also called nectin-4 antibody Ab1a
# B5: Ab7 (antibody, human IgG1, lambda, L234A L235A, V domains shown)
# VH: QVQLVQSGAEVKKPGASVKVSCKASGYTFTNYYMHWVRQAPGQGLEWMGIINPSSGSASYAQKFQGRVTMTRDTSTSTVYMELSSLRSEDTAVYYCAREGVGRDILQAFDIWGQGTLVTVSS
# VL: QSVLTQPPSVSEAPRQRVTISCSGSSSNIGNNAVNWYQQLPGKAPKLLIYYDDLLPSGVSDRFSGSKSGTSASLAISGLQSEDEADYYCAAWDDSLNGHVFGGGTKLTVLG
# notes: Unconjugated antibody; also called Antibody 7; nectin-4 antibody Ab7
# B6: Ab8 (antibody, human IgG1, lambda, L234A L235A, V domains shown)
# VH: QVQLVQSGAEVKKPGASVKVSCKASGYTFTSYYIHWVRQAPGQGLEWMGIINPISGRTSSAQKFQGRVTMTRDTSTSTVYMELSSLRSEDTAVYYCAKEGVGGELLRAFDIWGQGTLVTVSS
# VL: B5 VL with H99F
# notes: Unconjugated antibody; also called Antibody 8; nectin-4 antibody Ab8
# B7: Ab6 (antibody, human IgG1, lambda, L234A L235A, V domains shown)
# VH: QVQLVQSGAEVKKPGASVKVSCKASGYTFTGYYMHWVRQAPGQGLEWMGIINPSGGSTTYAQKFQGRVTMTRDTSTSTVYMELSSLRSEDTAVYYCARGRLGTYFDYWGQGTLVTVSS
# VL: SYVLTQPPSVSVAPGQTARITCGGNNIGSKSVHWYQQKPGQAPVLVVYDDSDRPSGIPERFSGSNSGNTATLTISRVEAGDEADYYCQVWDRSSDQVVFGGGTKLTVLG
# notes: Unconjugated antibody; also called Antibody 6; nectin-4 antibody Ab6
# B8: Ab4 ADC (Ab4 conjugated as in Formula XI, DAR of 8) (antibody, human IgG1, kappa, L234A L235A, V domains shown)
# VH: B2 VH
# VL: B1 VL with D28G, V50A, I91F, F96W
# modifications: camptothecin analog linker-payload of Formula XI on cysteine thiols after full reduction, DAR of 8 per antibody; positions not given
# notes: Antibody-drug conjugate of Ab4; also called Ab4 (ADC column)
# B9: Ab3 ADC (Ab3 conjugated as in Formula XI, DAR of 8) (antibody, human IgG1, kappa, L234A L235A, V domains shown)
# VH: B1 VH
# VL: B1 VL
# modifications: camptothecin analog linker-payload of Formula XI on cysteine thiols after full reduction, DAR of 8 per antibody; positions not given
# notes: Antibody-drug conjugate of Ab3; also called Ab3 (ADC column)
# B10: Ab6 ADC (Ab6 conjugated as in Formula XI, DAR of 8) (antibody, human IgG1, lambda, L234A L235A, V domains shown)
# VH: B7 VH
# VL: B7 VL
# modifications: camptothecin analog linker-payload of Formula XI on cysteine thiols after full reduction, DAR of 8 per antibody; positions not given
# notes: Antibody-drug conjugate of Ab6; also called Ab6 (ADC column)
# Molecular target: T1, human nectin-4 on cells
# Assay: flow cytometry, SUM190PT cells (high endogenous nectin-4)
Binder,% of enfortumab (Average Max MFI) [%],Average Max MFI [MFI],EC50 [pM]
B1,112,1.2e+06,230
B2,97.9,1e+06,190
B3,145,1.5e+06,310
B4,55.6,590000,120
B5,112,1.2e+06,140
B6,81.9,8.7e+06,110
B7,127,1.3e+06,170

# Molecular target: T2, human Nectin-4-eGFP on T24 cells (clone …)
# Assay: cell-based or functional assay
Binder,% activity (max GFP signal loss compared to enfortumab mAb (100%)) [%],EC50 (nM) of nectin-4-eGFP signal loss [nM]
B1,64.4,1.3
B8,143,2.1
B2,40.9,0.41
B3,40.1,2.69
B9,136,2.68
B4,145,2.54
B5,66.5,3.37
B6,53.7,3.68
B7,65.1,41.4
B10,118,2.26

# Molecular target: T1, human nectin-4 on cells
# Assay: flow cytometry, NCI-H1781 cells (low endogenous nectin-4)
Binder,% of enfortumab (Average Max MFI) [%],Average Max MFI [MFI],EC50 [pM]
B1,105,96000,100
B2,95.8,87000,140
B3,102,93000,80
B4,84.5,77000,200
B5,96,87000,90
B6,99.6,90000,100
B7,93.8,85000,30

# Molecular target: T3, recombinant HIS-tagged human nectin-4 …
# Assay: SPR Biacore 8K+, ADC captured via anti-human Fc, nectin-4 analyte, 37 C;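 note: Nectin-4 injected over captured ADC at 0 to 600 nM for 2 min association, then 10 min dissociation, with a reference flow cell lacking ADC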
Binder,Kd [pM],koff [s⁻¹],kon [M⁻¹ s⁻¹]
B8,204000,–,–
B9,1030,0.000437,424000
B10,91800,0.163,1.78e+06

# Molecular target: T4, recombinant HIS-tagged cyno nectin-4 …
# Assay: as above
Binder,Kd [pM],koff [s⁻¹],kon [M⁻¹ s⁻¹]
B9,986,0.000426,432000

# Molecular target: T5, recombinant HIS-tagged rat nectin-4 …
# Assay: as above
Binder,Kd [pM],koff [s⁻¹],kon [M⁻¹ s⁻¹]
B9,5280,0.000903,171000
B10,114000,0.105,925000

# Molecular target: T1, human nectin-4 on cells
# Assay: cell-based or functional assay
Binder,"Cytotoxicity IC50, NCI H1781 cells [pM]","Cytotoxicity IC50, T24 Nectin-4 clone 108 cells [pM]"
B8,311,115
B9,55.3,82.5
B10,60.8,78.3
